Km and kcat data for two proteins are collected here from publication doi:10.1101/466938v1.

Substrate in series [1]: Cc1cn([C@H]2C[C@H](O)[C@@H](COP(=O)(O)O)O2)c(=O)[nH]c1=O
Description: NADH-coupled assay. It is filed as biochemical, Homo sapiens. As to conditions: 500 μM ATP, 100 mM Tris-HCl, 100 mM KCl, 10 mM MgCl2.

Substrate in series [2]: Cc1cn([C@H]2C[C@H](O)[C@@H](COP(=O)(O)O)O2)c(=O)[nH]c1=O
As to the kind of experiment: NADH-coupled assay. It is filed as biochemical, Candida albicans. As to conditions: 500 μM ATP, 100 mM Tris-HCl, 100 mM KCl, 10 mM MgCl2.

B1: hTMPK (Homo sapiens) (protein)
chain: MAARRGALIVLEGVDRAGKSTQSRKLVEALCAAGHRAELLRFPERSTEIGKLLSSYLQKKSDVEDHSVHLLFSANRWEQVPLIKEKLSQGVTLVVDRYAFSGVAFTGAKENFSLDWCKQPDVGLPKPDLVLFLQLQLADAAKRGAFGHERYENGAFQERALRCFHQLMKDTTLNWKMVDASKSIEAVHEDIRVLSEDAIRTATEKPLGELWK
Regarding B1, in “NADH-coupled assay [1]”, the Michaelis-Menten constant (Km) came to 16.3 ± 2.3 µM and the kcat was determined as 0.352 ± 0.01 s⁻¹.

B2: CaTMPK (Candida albicans SC5314) (protein)
chain: MARGQLILIEGLDRSGKSTQASILSTKLSPSKLIKFPDRSTPIGKLINEYLTNKSFTLSDQAAHLLFSANRWELSQQIQDLLNQGYFIILDRYIYSGIAYTLAKNDFHDETISQGKNKQQLNNIDWLLSPDKGLPKPDLTLFLTLDLEEISKRKGWGDERYELQQFQAKVKQCFLEILDTNKDPTIRIVDVGGKTIDQVTTQLWEIIETNKNHELINDSIQFIT
Take B2: in “NADH-coupled assay [2]”, the Km amounted to 24.1 ± 3.2 µM and the kcat was 5.347 ± 0.118 s⁻¹.
